System: MS2 coat protein
Assay: apparent KD of MS2 coat protein; designed switch direction (-1 OFF switch, 1 ON switch): -1; higher = weaker reporter binding
How it was run: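 Apparent KD, taken as the median over clusters for each design, was obtained by curve-fitting normalised cluster fluorescence. Designed RNA switches had been transcribed on Illumina chips by stalled E. coli RNA polymerase and titrated with SNAP-549-labelled MS2 coat protein, doubling from 0.7 or 1.5 nM to 3 µM.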

[1] = Eterna round: R95, input ligand: FMN 200 uM
[2] = Eterna round: R95, input ligand: microRNA oligo, concentration not stated
[3] = Eterna round: R95, input ligand: none
[4] = input ligand: microRNA oligo, concentration not stated

With “ACUUGUUGUCCUUGAUAUUACAUGAGGAUCACCCAUGUUAUUGUGAUUAUGAUGUGUAAGUUUGUUGCUCGUUUUAU [JR_STOV1_Sub066] (Eterna round: R97, puzzle: Sensor, turn-off variant 1)” the “apparent KD of MS2 coat protein” value (input ligand: FMN 200 uM) was 84.7 nM and the “apparent KD of MS2 coat protein” value (input ligand: none) was 84 nM.

In the case of “AGAAAAGCCCAUGACCGCAAGCUUUUUGCUUGUCUUACCACAUGAGGAUCACCCAUGUGACAUGGGCUCCUUAUAAU [Atcein] (puzzle: Sensor v3, turn-off variant 2)”, the “apparent KD of MS2 coat protein” value [1] is reported as 13.2 nM, the “apparent KD of MS2 coat protein” value [2] is reported as 10.2 nM and the “apparent KD of MS2 coat protein” value [3] is reported as 11.1 nM.

For “AGAAAGCAAGGAUAUACAAGUAAACGACGGAAAGUAGAGAGACAUGAGGAUCACCCAUGUAGAAGGUGCGAGAG [JR_Exclu2_Sub034] (puzzle: Exclusion 2)”, the “apparent KD of MS2 coat protein” value [1] was 24.7 nM, the “apparent KD of MS2 coat protein” value [2] was 26.1 nM and the “apparent KD of MS2 coat protein” value [3] was 26.2 nM.

In the case of “AGAAAUCUGUAGGAUAUGUUGAACACCGUGUACACAGAAGGGCAGACAUGAGGAUCACCCAUGUGGUGGGCCAG [Eternabot (L1) Solution 91] (Eterna round: R97, puzzle: Exclusion 6)”, the “apparent KD of MS2 coat protein” value (input ligand: FMN 200 uM) is reported as 576 nM and the “apparent KD of MS2 coat protein” value (input ligand: none) is reported as 469 nM.

With “AGAAAUGCCCAUGGCCGCAAGCUUUUCGCUUGUCUUACCACAUGAGGAUCACCCAUGUGACAUGGGCUCCUUAUAAU [Usdigeor] (puzzle: Sensor v3, turn-off variant 2)” the “apparent KD of MS2 coat protein” value [1] was 12.3 nM and the “apparent KD of MS2 coat protein” value [3] was 12 nM.

“AGAAGUAGCAACCGAUCCUACAUGAGGAUCACCCAUGUAGCAAGACGUGCACGCGAAGCUCGUCAGACUACCAGAUG [salish99_TOv1_r3_022] (puzzle: Sensor v3, turn-off variant 1)” was tested, and the “apparent KD of MS2 coat protein” value [1] was 216 nM, the “apparent KD of MS2 coat protein” value [2] was 210 nM and the “apparent KD of MS2 coat protein” value [3] was 168 nM.

With “AGAAGUAGUAACCGAUCCUACAUGAGGAUCACCCAUGUAGCGAGACGUGCACGCGAAGCUCGUCAGACUACCAGAUG [salish99_TOv1_r3_025] (puzzle: Sensor v3, turn-off variant 1)” the “apparent KD of MS2 coat protein” value [1] was 138 nM, the “apparent KD of MS2 coat protein” value [2] was 139 nM and the “apparent KD of MS2 coat protein” value [3] was 159 nM.

In the case of “AGAAGUAUAGGAUAUACGUCUGCGCACAUGAGGAUCACCCAUGUCGUGUUCCGUGGCAGAGUAGAAGGGUACGGAC [EX5 B.11] (Eterna round: R97, puzzle: Exclusion 5)”, the “apparent KD of MS2 coat protein” value (input ligand: FMN 200 uM) is reported as 305 nM and the “apparent KD of MS2 coat protein” value (input ligand: none) is reported as 219 nM.

For “AGAGAAUACUCAGGAUAUCUGAAUAGAAAGAGAAGAGAAGGGAGACAUGAGGAUCACCCAUGUGAAGUCUUGAGACUACAUGGU [Prohibition 27 - Jieux - Exclusion NG 1] (Eterna round: R96, puzzle: Exclusion NG 1)”, the “apparent KD of MS2 coat protein” value [4] was 225 nM.

For “AGAGUGCUGCGAGGAUAUACAUGAGGAUCACCCAUGUUUUCCUGUGAGGCAAAGCCUCACAGGAUGUAGAAGGCGCAGUACUCA [Mat - Exclusion NG 2 - Mod of JL - D39] (Eterna round: R96, puzzle: Exclusion NG 2)”, the “apparent KD of MS2 coat protein” value (input ligand: FMN 200 uM) was 13.9 nM, the “apparent KD of MS2 coat protein” value [4] was 11.1 nM and the “apparent KD of MS2 coat protein” value (input ligand: none) was 17.7 nM.

With “AGAGUGCUGCGAGGAUAUACAUGAGGAUCACCCAUGUUUUCCUGUGAGGCUUUGCCUCACAGGAUGUAGAAGGCGCAGUACUCA [Mat - Exclusion NG 2 - Mod of JL - D38] (Eterna round: R96, puzzle: Exclusion NG 2)” the “apparent KD of MS2 coat protein” value (input ligand: FMN 200 uM) was 9.32 nM, the “apparent KD of MS2 coat protein” value [4] was 9.65 nM and the “apparent KD of MS2 coat protein” value (input ligand: none) was 13.1 nM.

“AGAGUGUGAGGAUAUAUGGUGCAGAUGAAGGGAUAGAAGGAGUAGAAGGUACAUGAGGAUCACCCAUGUUAGGA [JR_Exclu4_Sub077] (puzzle: Exclusion 4)” was tested, and the “apparent KD of MS2 coat protein” value [2] was 25.5 nM.

For “AGAUAUCUAGGAUAUGCGUCGCGGAGGACUCCGAAGGGAGGACAUGAGGAUCACCCAUGUAGAAGGAGACAUUG [Eternabot (L2) Solution 38] (Eterna round: R97, puzzle: Exclusion 2)”, the “apparent KD of MS2 coat protein” value (input ligand: FMN 200 uM) was 46 nM and the “apparent KD of MS2 coat protein” value (input ligand: none) was 45 nM.

“AGAUCACAUGAGGAUCACCCAUGUGAGGAUAUAGAUUCAAGAGCUUCGGCUCUACAGUCUAGAAGGCACUAUGA [EX1 #46] (Eterna round: R97, puzzle: Exclusion 1)” was tested, and the “apparent KD of MS2 coat protein” value (input ligand: FMN 200 uM) was 30.4 nM and the “apparent KD of MS2 coat protein” value (input ligand: none) was 25.7 nM.

With “AGAUCACAUGAGGAUCACCCAUGUGAGGAUAUGAUACUAUGUACUUCGGUACAUAGUAUCAGAAGGCGCGUGAA [Ex1-3: 72] (puzzle: Exclusion 1)” the “apparent KD of MS2 coat protein” value [2] was 28.5 nM.

With “AGAUCCACCGAGGAUAUUGGAGUGAUAUCACUCUAAGAAGGCGGUACAUGAGGAUCACCCAUGUGAUACCCAGA [Eternabot (Original) Solution 15] (Eterna round: R97, puzzle: Exclusion 6)” the “apparent KD of MS2 coat protein” value (input ligand: FMN 200 uM) was 551 nM and the “apparent KD of MS2 coat protein” value (input ligand: none) was 316 nM.

With “AGAUCGUCAGGAUAUACAUGAGGAUCACCCAUGUAUAGUCUAAAUUUGACUAUAAGAUGUAGAAGGGACGAUCG [Exclusion 3 (MOD5 of #1 Marzena11)] (Eterna round: R97, puzzle: Exclusion 3)” the “apparent KD of MS2 coat protein” value (input ligand: FMN 200 uM) was 75.8 nM and the “apparent KD of MS2 coat protein” value (input ligand: none) was 21.4 nM.

For “AGAUCUAGGACAGGAUAUACAGAUGGCUUCAUCGAAGAUGAAGCCAUUACAUGAGGAUCACCCAUGUAGAAGGGUCCUAGAUCA [Omei Exc(NG) 2Av5] (Eterna round: R96, puzzle: Exclusion NG 2)”, the “apparent KD of MS2 coat protein” value (input ligand: FMN 200 uM) was 17.7 nM, the “apparent KD of MS2 coat protein” value [4] was 12 nM and the “apparent KD of MS2 coat protein” value (input ligand: none) was 14.2 nM.

For “AGAUCUAGGACAGGAUAUACGGAUGUCUUCAUCGAAGAUGAAGACAUUACAUGAGGAUCACCCAUGUAGAAGGGUCCUAGAUCA [Omei Exc(NG) 2Av1] (Eterna round: R96, puzzle: Exclusion NG 2)”, the “apparent KD of MS2 coat protein” value (input ligand: FMN 200 uM) was 13.8 nM, the “apparent KD of MS2 coat protein” value [4] was 10.6 nM and the “apparent KD of MS2 coat protein” value (input ligand: none) was 13.1 nM.

With “AGAUCUAGGACAGGAUAUAUAGAUGGCUUCAUCGAAGAUGAAGCCAUUACAUGAGGAUCACCCAUGUAGAAGGGUCCUAGAUCA [Omei Exc(NG) 2Av7] (Eterna round: R96, puzzle: Exclusion NG 2)” the “apparent KD of MS2 coat protein” value (input ligand: FMN 200 uM) was 11.2 nM, the “apparent KD of MS2 coat protein” value [4] was 14.3 nM and the “apparent KD of MS2 coat protein” value (input ligand: none) was 16.1 nM.

With “AGAUGCUCAAGUCGACAUGAGGAUCACCCAUGUACAAUUAACGAGGAUAUCCGAGAUAAAUAAUAGGAGAAGGCGUGAUCAUGA [Mat - Exclusion NG 3 - Mod of JL - D54] (Eterna round: R96, puzzle: Exclusion NG 3)” the “apparent KD of MS2 coat protein” value (input ligand: FMN 200 uM) was 66.2 nM, the “apparent KD of MS2 coat protein” value [4] was 110 nM and the “apparent KD of MS2 coat protein” value (input ligand: none) was 470 nM.

“AGAUGCUCGAGUCGACAUGAGGAUCACCCAUGUACAGUUAAUGAGGAUAUCUGAGACAAAUAGUAGGAGAAGGCGUGAACAUGA [Ex NG3 #11] (Eterna round: R96, puzzle: Exclusion NG 3)” was tested, and the “apparent KD of MS2 coat protein” value (input ligand: FMN 200 uM) was 191 nM, the “apparent KD of MS2 coat protein” value [4] was 68.6 nM and the “apparent KD of MS2 coat protein” value (input ligand: none) was 90.9 nM.

“AGAUGGCGAGGAUAUACAUGAGGAUCACCCAUGUGAAGAAUAAUAGUGAGGAAGAAAAGUAGAAGGCGCUGUCA [Mat - Exclusion 3 - Mod of Salish D33] (puzzle: Exclusion 3)” was tested, and the “apparent KD of MS2 coat protein” value [2] was 37 nM.

“AGAUGGCGAGGAUAUACAUGAGGAUCACCCAUGUGAAGAUAAAUAGUGAGGAAGAAAAGUAGAAGGCGCUGUCA [Mat - Exclusion 3 - Mod of Salish D27] (puzzle: Exclusion 3)” was tested, and the “apparent KD of MS2 coat protein” value [2] was 58.6 nM.

In the case of “AGAUGGCGAGGAUAUACAUGAGGAUCACCCAUGUGAGAUAAUAAAGUGAGGAAGAAAAGUAGAAGGCGCUGUCA [Mat - Exclusion 3 - Mod of Salish D13] (puzzle: Exclusion 3)”, the “apparent KD of MS2 coat protein” value [1] is reported as 221 nM, the “apparent KD of MS2 coat protein” value [2] is reported as 53.7 nM and the “apparent KD of MS2 coat protein” value [3] is reported as 56.8 nM.

With “AGAUGUUAAGAGGAUAUCAGCCGAAACCGGCAGUGAGAAGGCUUGACAUGAGGAUCACCCAUGUUUUGCGGUAA [Intebiabe] (Eterna round: R97, puzzle: Exclusion 6)” the “apparent KD of MS2 coat protein” value (input ligand: FMN 200 uM) was 300 nM and the “apparent KD of MS2 coat protein” value (input ligand: none) was 35.6 nM.

With “AGAUUACGAGGAUAUCGAUUUUAGUACAUGAGGAUCACCCAUGUUAUCCAGGUCUCGUUUCGAGAAGGCGUGAUUC [LRO-Ex5-07] (puzzle: Exclusion 5)” the “apparent KD of MS2 coat protein” value [2] was 196 nM.

“AGAUUACUGCGAGGAUAUACAUGAGGAUCACCCAUGUGGUGGUGUGAGGCAAAGCCUCACACCAUGUAGAAGGCGCAGUAAUCA [Mat - Exclusion NG 2 - Mod of JL - D22] (Eterna round: R96, puzzle: Exclusion NG 2)” was tested, and the “apparent KD of MS2 coat protein” value (input ligand: FMN 200 uM) was 150 nM, the “apparent KD of MS2 coat protein” value [4] was 23.3 nM and the “apparent KD of MS2 coat protein” value (input ligand: none) was 44.5 nM.

With “AGCAGUAGUAUCCGAUCCUACAUGAGGAUCACCCAUGUAGCUAGACGUGCACGCGAUGCUCGUCAGACUACCAGAUG [salish99_TOv1_r3_035] (puzzle: Sensor v3, turn-off variant 1)” the “apparent KD of MS2 coat protein” value [1] was 119 nM, the “apparent KD of MS2 coat protein” value [2] was 200 nM and the “apparent KD of MS2 coat protein” value [3] was 195 nM.

With “AGCAUGCUAGGAUAUACGAAACAUUAGGGUUCUUUGUAUGAACAUGAGGAUCACCCAUGUAGAAGGAGCGUGCA [Mat - Exclusion 2 - Mod of Hyphema - D96] (puzzle: Exclusion 2)” the “apparent KD of MS2 coat protein” value [2] was 82.5 nM.

In the case of “AGCAUGUUAGGAUAUGCCAAAAUUAACCACGACUCAGUGAUGCAGAAGGAACAUGAGGAUCACCCAUGUGCUCC [Eternabot (L1) Solution 16] (Eterna round: R97, puzzle: Exclusion 4)”, the “apparent KD of MS2 coat protein” value (input ligand: FMN 200 uM) is reported as 219 nM and the “apparent KD of MS2 coat protein” value (input ligand: none) is reported as 38.2 nM.

“AGCCACAGAGGAUAUACAUACAUCCAGUAGUAAAGAAUACUACAUGAGGAUCACCCAUGUAGAAGGCUGUGGCA [Omei Ex2 BD B13] (Eterna round: R97, puzzle: Exclusion 2)” was tested, and the “apparent KD of MS2 coat protein” value (input ligand: FMN 200 uM) was 308 nM and the “apparent KD of MS2 coat protein” value (input ligand: none) was 86.4 nM.

In the case of “AGCCCUGCAGGAUAUGCCGAGGAUAACAUGAGGAUCACCCAUGUGACCGAUUGUUAGACUGCAGAAGGGCAUGGGA [salish99_ex5_r4_303] (Eterna round: R97, puzzle: Exclusion 5)”, the “apparent KD of MS2 coat protein” value (input ligand: FMN 200 uM) is reported as 81.7 nM and the “apparent KD of MS2 coat protein” value (input ligand: none) is reported as 509 nM.

Source: the supplement of paper PMC9170038
